B1: Lysozyme C, P61626 (parent)
chain: MKALIVLGLVLLSVTVQGKVFERCELARTLKRLGMDGYRGISLANWMCLAKWESGYNTRATNYNAGDRSTDYGIFQINSRYWCNDGKTPGAVNACHLSCSALLQDNIADAVACAKRVVRDPQGIRAWVAWRNRCQNRDVRQYVQGCGV

Variants of: B1
Conditions: Homo sapiens, pH 2.8, Thermal, DSC, glycine-HCl 50 mM, reversible: yes, structure 1LZ1, whole UniProt chain shown

| Variant | ddG of mutation (higher = less stable) (68.8 °C) | heat capacity change of unfolding (68.8 °C) | unfolding enthalpy (calorimetric) (68.8 °C) | Tm | change of melting temperature, mutant - wild type (higher = more stable) | heat capacity change of unfolding |
| --- | --- | --- | --- | --- | --- | --- |
| MKALIVLGLVLLSVTVQGKVFERCELARTLKRLGMDGYRGISLANWMCLAKWESGYNTRATNYNAGDRSTDYGIFQINSRYWCNDGKTPGAVNACHLSCSALLQDNIADAVACAKRVVRDGQGIRAWVAWRNRCQNRDVRQYVQGCGV | 0.1 kcal/mol | 1.58 kcal/mol/K | 120 kcal/mol | 68.7 °C | -0.1 °C | 1.58 kcal/mol/K |
| MKALIVLGLVLLSVTVQGKVFERCELARTLKRLGMDGYRGISLANWMCLAKWESGYNTRATNYNPGDRSTDYGIFQINSRYWCNDGKTPGAVNACHLSCSALLQDNIADAVACAKRVVRDPQGIRAWVAWRNRCQNRDVRQYVQGCGV | -0.1 kcal/mol | 1.56 kcal/mol/K | 119 kcal/mol | 69.1 °C | 0.3 °C | 1.56 kcal/mol/K |
| MKALIVLGLVLLSVTVQGKVFERCELARTLKRLGMDGYRGISLANWMCLAKWESGYNTRATNYNAGDRSTDYGIFQINSRYWCNDGKTPGAVNACHLSCSALLQDNIADAVACAKRVVRDPQGIRAWPAWRNRCQNRDVRQYVQGCGV | -0.5 kcal/mol | 1.57 kcal/mol/K | 120 kcal/mol | 70 °C | 1.2 °C | 1.57 kcal/mol/K |
| MKALIVLGLVLLSVTVQGKVFERCELARTLKRLGMDGYRGISLANWMCLAKWESGYNTRATNYNAGDRSTDYGIFQINSRYWCNDGKTPGAVNACHLSCSALLQDNIAPAVACAKRVVRDPQGIRAWVAWRNRCQNRDVRQYVQGCGV | 0.4 kcal/mol | 1.57 kcal/mol/K | 115 kcal/mol | 67.7 °C | -1.1 °C | 1.57 kcal/mol/K |
| MKALIVLGLVLLSVTVQGKVFERCELARTLKRLGMDGYRGISLANWMCLAKWESGYNTRATNYNAGDRSTDYGIFQINSRYWCNDGKTGGAVNACHLSCSALLQDNIADAVACAKRVVRDPQGIRAWVAWRNRCQNRDVRQYVQGCGV | 1.6 kcal/mol | 1.58 kcal/mol/K | 121 kcal/mol | 64.1 °C | -4.7 °C | 1.58 kcal/mol/K |
| MKALIVLGLVLLSVTVQGKVFERCELARTLKRLGMDGYRGISLANWMCLAKWESGYNTRATNYNAGDRSTDYGIFQINSRYWCNDGKTGGAVNACHLSCSALLQDNIADAVACAKRVVRDGQGIRAWVAWRNRCQNRDVRQYVQGCGV | 1.6 kcal/mol | 1.58 kcal/mol/K | 120 kcal/mol | 64.3 °C | -4.5 °C | 1.58 kcal/mol/K |
